This note sets out measurements from patent US9463249B2, “Crystalline insulin-conjugates” (SmartCells, Inc., priority 2009, dated 2016).

Data set [1] relates to lectins. Briefly: Relative lectin binding affinities of saccharide ligands (FIG. 1). Particulars: four sugars shown in FIG. 1.
Data set [2] in a line: Glucose-responsive PK under constant i.v. infusion with i.p. glucose injection at 240 min. Details: species or system Sprague-Dawley rats. Particulars: rat, in vivo, iv.
Procedure: In this example, the i.v. elimination rate experiment described in Example 30 was modified from a single i.v. bolus of 0.4 mg conjugate/kg body weight to a continuous i.v. infusion.
A blood sample was taken at t=0 min, after which the constant i.v. infusion was initiated.
Throughout the experiments, blood glucose was measured using commercially available test strips (Precision Xtra, Abbott Laboratories, Abbott Park, Ill.). Blood from each timepoint was centrifuged at 4 C to collect the serum, and serum insulin or serum conjugate concentrations were subsequently measured with a commercially available ELISA kit (Iso-Insulin ELISA, Mercodia, Uppsala, Sweden).
The conditions of data set [3]: rat, in vivo, iv. Here is the method:
To determine the elimination rate in the presence of elevated glucose levels, one hour before the start of the experiment one rat cannula was connected to a syringe infusion pump containing a sterile 50% w/v glucose solution. The pump infusion rate was adjusted by the experimenter to ensure that the blood glucose levels in the animal remained above 300 mg/dL at all times during the experiment. Blood glucose was measured using commercially available test strips (Precision Xtra, Abbott Laboratories, Abbott Park, Ill.). […]
(§1) Throughout the experiment, blood glucose was measured using commercially available test strips (Precision Xtra, Abbott Laboratories, Abbott Park, Ill.). Blood from each timepoint was centrifuged at 4 C to collect the serum, and serum insulin or serum conjugate concentrations were subsequently measured with a commercially available ELISA kit (Iso-Insulin ELISA, Mercodia, Uppsala, Sweden). […]
as §1

As for `NCCO[C@H]1O[C@H](CO[C@H]2O[C@H](CO)[C@@H](O)[C@H](O)[C@@H]2O)[C@@H](O)[C@H](O[C@H]2O[C@H](CO)[C@@H](O)[C@H](O)[C@@H]2O)[C@@H]1O` [AETM, Man (α-1,3)-Man(α-1.6)-α-1-aminoethylmannopyranoside], the “lectin binding affinity relative to the other sugars” value in data set [1] is “highest affinity of the four sugars shown”.
For the compound “RHI: recombinant human insulin (MW=5808 Da, Sigma Aldrich), unconjugated control”, the “hypoglycemia prior to glucose injection” value in data set [2] is “causes significant hypoglycemia prior to glucose injection”. Further, the “effect of sugars on elimination rate, in words” value in data set [3] is on record as “not affected in the presence of sugars”.
